For 2 molecules, Ki results are on record in paper PMC5180416 (Journal of the American Chemical Society, 2012).

Test [1] concerns the target T1, WDR5 (WD (Trp-Asp) repeat domain 5) (UniProt P61964 1-334). The test is described as follows: fluorescence polarisation. For orientation: In fluorescence polarisation assays a small probe gives low polarisation when free and higher when bound to something large.
Test [2] deals with T1, WDR5 (WD (Trp-Asp) repeat domain 5). The test is described as follows: fluorescence polarisation. This is another data set of the same source.

Like-named read-outs stand apart in the source and are kept apart here. Square brackets hold non-standard residues; d marks the D form. ACPC = not defined here; Ac3c = NC1(C(=O)O)CC1

Consider Ac-[Ac3c]-Arg-Val-NH2 [ACPC-RV], for which affinity in test [1] was put at a Ki of 60 nM. Take Ac-Val-Arg-[ACPC]-NH2 (reading uncertain) [VR-ACPC]: the Ki (as a rule, the equilibrium dissociation constant of an inhibitor or competing ligand from its target) in test [2] came to 600 nM.
